The text below walks through data of patent publication US10196445.

Holding throughout (experiment): Fc receptor binding, method not stated
For one assay, the target named is CD64 (FcγRIa) (human) (UniProt P12314).
Another assay concerns the target CD32B (FcγRIIb) (human) (UniProt P31994).
Assay [1] concerns the target CD32-R131 (FcγRIIa) (human) (UniProt P12318).
The target of assay [2] is CD32-H131 (FcγRIIa) (human) (UniProt P12318).
Assay [3] concerns the target CD16-V158 (FcγRIIIa) (human) (UniProt P08637).

CD32-R131 (FcγRIIa) (human), sequence (P12318 34-217 H167R limits assumed): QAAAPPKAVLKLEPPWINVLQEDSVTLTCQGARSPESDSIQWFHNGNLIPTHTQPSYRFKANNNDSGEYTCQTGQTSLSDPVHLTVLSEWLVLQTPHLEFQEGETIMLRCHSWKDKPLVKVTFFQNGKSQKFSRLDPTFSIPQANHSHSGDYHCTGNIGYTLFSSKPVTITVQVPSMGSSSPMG
CD64 (FcγRIa) (human), sequence (P12314 16-288 limits assumed): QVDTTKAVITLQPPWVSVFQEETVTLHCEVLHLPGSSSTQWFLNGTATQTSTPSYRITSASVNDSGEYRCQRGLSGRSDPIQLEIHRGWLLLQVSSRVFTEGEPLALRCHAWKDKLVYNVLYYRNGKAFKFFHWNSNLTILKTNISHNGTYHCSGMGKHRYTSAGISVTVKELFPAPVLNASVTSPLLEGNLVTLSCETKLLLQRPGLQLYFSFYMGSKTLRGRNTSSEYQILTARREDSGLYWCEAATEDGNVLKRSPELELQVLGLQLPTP
CD16-V158 (FcγRIIIa) (human), sequence (P08637 17-208 F176V limits assumed): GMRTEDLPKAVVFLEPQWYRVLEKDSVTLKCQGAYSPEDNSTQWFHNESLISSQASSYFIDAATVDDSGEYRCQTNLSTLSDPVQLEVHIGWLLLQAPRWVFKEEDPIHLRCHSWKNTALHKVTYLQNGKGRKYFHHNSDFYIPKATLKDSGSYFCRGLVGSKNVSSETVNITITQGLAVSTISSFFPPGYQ
CD32-H131 (FcγRIIa) (human), sequence (P12318 34-217 limits assumed): as the sequence (P12318 34-217 H167R limits assumed) above, with R134H counted along it
CD32B (FcγRIIb) (human), sequence (P31994 43-217 limits assumed): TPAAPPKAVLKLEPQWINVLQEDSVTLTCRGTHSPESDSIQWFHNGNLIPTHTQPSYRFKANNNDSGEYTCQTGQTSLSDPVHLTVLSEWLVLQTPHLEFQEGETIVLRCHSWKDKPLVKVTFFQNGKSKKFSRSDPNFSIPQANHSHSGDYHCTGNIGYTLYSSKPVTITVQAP

Consider “GASDALIE modified IgG1f antibody (human IgG1, 214R/356E/358M allotype; G236A, S239D, A330L and I332E)”, for which the Kd (in general, the free concentration of one partner at which half of the binding sites on the other are occupied at equilibrium, for simple one-to-one binding) in the assay with CD64 (FcγRIa) (human) is 0.6 nM; in the assay with CD32B (FcγRIIb) (human), 890 nM; in assay [1], 100 nM.
“IgG1f antibody (human IgG1, 214R/356E/358M allotype)”: the Kd came out at 0.2 nM with CD64 (FcγRIa) (human), 530 nM in assay [2], 97 nM in assay [3] and 960 nM in assay [1].
For “non-fucosylated IgG1f antibody (human IgG1, 214R/356E/358M allotype)” the same measures were 0.1 nM, 560 nM, 11 nM and 710 nM.
